# Experimental data taken from the supplement of paper PMC10567573.
# B1: SETD8 (parent)
# chain: GKQAPRKKAQGKTQQNRKLTDFYP
# Variants of: B1
# Assay: protein stability index of a GFP-peptide fusion (GPS, HEK-293T) (PSI 1-6); higher = more stable
# Conditions: c terminus: a fixed tail appended
# 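Note: lentivirally expressed fusions sorted by FACS into six bins by GFP to DsRed ratio, PSI derived from sequencing read proportions per bin multiplied by bin number.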
row,Variant,protein stability index
1,GKQAERKKAQGKTQQNRKLTDFYP,3.58
2,GKQAFRKKAQGKTQQNRKLTDFYP,2.95
3,GKQAQRKKAQGKTQQNRKLTDFYP,3.75
4,GKQAYRKKAQGKTQQNRKLTDFYP,2.2
5,GKQAARKKAQGKTQQNRKLTDFYP,2.52
6,GKQAHRKKAQGKTQQNRKLTDFYP,2.85
7,GKQATRKKAQGKTQQNRKLTDFYP,1.74
8,GKQAMRKKAQGKTQQNRKLTDFYP,3.08
9,GKQAKRKKAQGKTQQNRKLTDFYP,3.35
10,GKQAVRKKAQGKTQQNRKLTDFYP,3.18
11,GKQALRKKAQGKTQQNRKLTDFYP,2.74
12,GKQACRKKAQGKTQQNRKLTDFYP,1.99
13,GKQAWRKKAQGKTQQNRKLTDFYP,2.57
14,GKQAGRKKAQGKTQQNRKLTDFYP,4.29
15,GKQAIRKKAQGKTQQNRKLTDFYP,3.36
16,GKQASRKKAQGKTQQNRKLTDFYP,4.65
17,GKQAPNKKAQGKTQQNRKLTDFYP,4.12
18,GKQAPFKKAQGKTQQNRKLTDFYP,2.43
19,GKQAPYKKAQGKTQQNRKLTDFYP,2.65
20,GKQAPAKKAQGKTQQNRKLTDFYP,3.42
21,GKQAPPKKAQGKTQQNRKLTDFYP,4.13
22,GKQAPHKKAQGKTQQNRKLTDFYP,3.07
23,GKQAPVKKAQGKTQQNRKLTDFYP,2.68
24,GKQAPWKKAQGKTQQNRKLTDFYP,2.48

row,Variant,protein stability index
1,GKQAPGKKAQGKTQQNRKLTDFYP,3.55
2,GKQAPTKKAQGKTQQNRKLTDFYP,3.21
3,GKQAPDKKAQGKTQQNRKLTDFYP,3.67
4,GKQAPIKKAQGKTQQNRKLTDFYP,2.76
5,GKQAPEKKAQGKTQQNRKLTDFYP,3.29
6,GKQAPCKKAQGKTQQNRKLTDFYP,2.82
7,GKQAPKKKAQGKTQQNRKLTDFYP,3.44
8,GKQAPSKKAQGKTQQNRKLTDFYP,3.46
9,GKQAPRFKAQGKTQQNRKLTDFYP,2.42
10,GKQAPRMKAQGKTQQNRKLTDFYP,3.72
11,GKQAPRSKAQGKTQQNRKLTDFYP,2.48
12,GKQAPRWKAQGKTQQNRKLTDFYP,2.95
13,GKQAPRQKAQGKTQQNRKLTDFYP,3.96
14,GKQAPRDKAQGKTQQNRKLTDFYP,3.07
15,GKQAPRTKAQGKTQQNRKLTDFYP,2.78
16,GKQAPRNKAQGKTQQNRKLTDFYP,2.21
17,GKQAPRYKAQGKTQQNRKLTDFYP,3.06
18,GKQAPREKAQGKTQQNRKLTDFYP,2.82
19,GKVAPRKKAQGKTQQNRKLTDFYP,2.28
20,GKYAPRKKAQGKTQQNRKLTDFYP,3.58
21,GKTAPRKKAQGKTQQNRKLTDFYP,2.93
22,GKQRPRKKAQGKTQQNRKLTDFYP,3.15
23,GKQQPRKKAQGKTQQNRKLTDFYP,2.77
24,GKQFPRKKAQGKTQQNRKLTDFYP,3.05

row,Variant,protein stability index
1,GKQSPRKKAQGKTQQNRKLTDFYP,4.29
2,GKQPPRKKAQGKTQQNRKLTDFYP,2.63
3,GKQTPRKKAQGKTQQNRKLTDFYP,2.71
4,GKQVPRKKAQGKTQQNRKLTDFYP,1.83
5,GKQEPRKKAQGKTQQNRKLTDFYP,3.04
6,GKQKPRKKAQGKTQQNRKLTDFYP,3.73
7,GKQWPRKKAQGKTQQNRKLTDFYP,3.3
8,GKQIPRKKAQGKTQQNRKLTDFYP,3.09
9,GKQCPRKKAQGKTQQNRKLTDFYP,3.34
10,GKQNPRKKAQGKTQQNRKLTDFYP,3.23
11,GKQGPRKKAQGKTQQNRKLTDFYP,3.46
12,GKQAPRKKQQGKTQQNRKLTDFYP,2.89
13,GKQAPRKKDQGKTQQNRKLTDFYP,3.57
14,GKQAPRKKIQGKTQQNRKLTDFYP,3.08
15,GKQAPRKKPQGKTQQNRKLTDFYP,3.43
16,GKQAPRKKMQGKTQQNRKLTDFYP,2.54
17,GKQAPRKKHQGKTQQNRKLTDFYP,2.6
18,GKQAPRKKCQGKTQQNRKLTDFYP,2.77
19,GKQAPRKKYQGKTQQNRKLTDFYP,3.35
20,GKQAPRKKNQGKTQQNRKLTDFYP,4.09
21,GKQAPRKKARGKTQQNRKLTDFYP,3.16
22,GKQAPRKKAPGKTQQNRKLTDFYP,2.65
23,GKQAPRKKAIGKTQQNRKLTDFYP,2.86
24,GKQAPRKKAAGKTQQNRKLTDFYP,3.52

row,Variant,protein stability index
1,GKQAPRKKASGKTQQNRKLTDFYP,4.86
2,GKQAPRKKADGKTQQNRKLTDFYP,3.17
3,GKQAPRKKAVGKTQQNRKLTDFYP,3.01
4,GKQAPRKKAFGKTQQNRKLTDFYP,3.28
5,GKQAPRKKAMGKTQQNRKLTDFYP,2.55
6,GKQAPRKKAEGKTQQNRKLTDFYP,2.78
7,GKQAPRKAAQGKTQQNRKLTDFYP,3.52
8,GKQAPRKLAQGKTQQNRKLTDFYP,1.99
9,GKQAPRKYAQGKTQQNRKLTDFYP,3.22
10,GKQAPRKRAQGKTQQNRKLTDFYP,2.75
11,GKQAPRKCAQGKTQQNRKLTDFYP,3.48
12,GKQAPRKIAQGKTQQNRKLTDFYP,3.04
13,GKQAPRKHAQGKTQQNRKLTDFYP,2.99
14,GKQAPRKWAQGKTQQNRKLTDFYP,3.3
15,GKQAPRKQAQGKTQQNRKLTDFYP,4.11
16,GKQAPRKGAQGKTQQNRKLTDFYP,3.85
17,GKQAPRKMAQGKTQQNRKLTDFYP,3.47
18,GKQAPRKFAQGKTQQNRKLTDFYP,1.63
19,GKQAPRKPAQGKTQQNRKLTDFYP,3.76
20,GKQAPRKTAQGKTQQNRKLTDFYP,2.77
21,GKQAPRKNAQGKTQQNRKLTDFYP,2.77
22,GKQAPRKSAQGKTQQNRKLTDFYP,3.55
